Data from patent US20080193465A1 (US Dept. of Health and Human Services, published 2008).
Each block holds one binder with its values, some of them ahead of it.

Experiments:
[1] = target: T1, mature IGF-II (human, UniProt P01344 25-91); assay: ELISA, 50 ng mature IGF-II immobilized, OD405
T1 construct: also called mature form of IGF-II
Protocol: Binding of the antibodies was measured by ELISA with 50 ng of either mature or precursor IGF-II immobilized on plates.

[2] = target: T2, long IGF-II (IGF-II precursor) (human, UniProt P01344 25-180); assay: ELISA, 50 ng long (precursor) IGF-II immobilized, OD405
T2 construct: Expressed in E. coli as His-tagged long IGF-II; also called long His6-IGF-II; His-tagged long IGF-II; not shown: His6 tag from the E. coli expression vector (pRSET)

[3] = target: T2, long IGF-II (IGF-II precursor); assay: Biacore 1000 SPR, IGF-II immobilized on CM5 chip, Fab injected, 1:1 Langmuir fit, 25° C.
Protocol: (§1) The binding of the Fabs was measured by using ELISA and Biacore surface plasmon resonance technology. […] Interactions between various Fabs and IGF-II were analyzed by surface plasmon resonance technology using a BIACORE 1000 instrument (Biacore, Pharmacia, Piscataway, N.J.). IGF-II was covalently immobilized onto a sensor chip (CM5) using carbodiimide coupling chemistry. A control reference surface was prepared for nonspecific binding and refractive index changes. For analysis of the kinetics of interactions, varying concentrations of Fabs were injected at flow rate of 30 μl/min using running buffer containing 150 mM NaCl, 3 mM EDTA, and 0.005% P-20 (pH 7.4). The association and dissociation phase data were fitted simultaneously to a 1:1 Langumir global model by using the nonlinear data analysis program BIAevaluation 3.2. All the experiments were performed at 25° C.
(§2) Biacore analysis was used to examine their binding affinities in more detail.

[4] = target: T3, IGF-I (UniProt P05019 49-118); assay: ELISA, antigens immobilized on the plate, single Fab concentration not shown, OD405
T3 construct: also called insulin-like growth factor I

[5] = target: T2, long IGF-II (IGF-II precursor); assay: Biacore SPR, Fab on long IGF-II
Protocol: as §1, §2

[6] = target: T2, long IGF-II (IGF-II precursor); assay: ELISA, Fab on immobilized long IGF-II
[7] = target: T2, long IGF-II (IGF-II precursor); assay: ELISA, long IGF-II immobilized at 50 ng/well, bound Fab detected with anti-FLAG-HRP, OD405
[8] = target: T4, BSA (Bos taurus, UniProt P02769); assay: ELISA, antigens immobilized on the plate, single Fab concentration not shown, OD405
T4 construct: also called bovine serum albumin
T4 sequence (P02769 25-607 limits assumed): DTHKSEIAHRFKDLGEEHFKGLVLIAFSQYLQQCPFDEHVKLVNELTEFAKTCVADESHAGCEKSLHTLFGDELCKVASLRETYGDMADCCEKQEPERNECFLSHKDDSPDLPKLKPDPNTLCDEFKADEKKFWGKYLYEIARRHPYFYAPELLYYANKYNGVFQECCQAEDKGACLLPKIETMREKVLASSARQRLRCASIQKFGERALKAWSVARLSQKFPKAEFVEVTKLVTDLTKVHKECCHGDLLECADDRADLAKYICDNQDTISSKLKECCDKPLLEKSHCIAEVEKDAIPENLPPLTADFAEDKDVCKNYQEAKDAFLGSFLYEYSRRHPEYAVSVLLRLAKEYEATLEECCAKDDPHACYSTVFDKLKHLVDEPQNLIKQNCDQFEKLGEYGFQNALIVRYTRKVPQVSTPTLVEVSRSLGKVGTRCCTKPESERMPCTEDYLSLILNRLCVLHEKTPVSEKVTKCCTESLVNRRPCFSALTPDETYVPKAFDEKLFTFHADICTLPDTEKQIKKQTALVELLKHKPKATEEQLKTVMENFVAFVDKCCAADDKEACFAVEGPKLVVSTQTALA

B2: Fab m610 (Fab, V domains shown)
VH: QVQLVQSGAEVKKPGASVKVSCKASGYTFTSYYMHWVRQAPGQGLEWMGIINPSGGSTSYAQKFQGRVTMTRDTSTSTVYMELSRLRSDDTAVYYCARDVQWLAYGMDVWGQGTTVTVSS
VL: not shown
notes: also called clone M610
Kd [3]: 0.9 nM
koff [3]: 0.00026 s⁻¹
kon [3]: 290000 M⁻¹ s⁻¹
binding result [4]: no binding
Ka [5]: 1.09e+09 M⁻¹
Kd [5]: 0.918 nM
koff [5]: 0.000262 s⁻¹
kon [5]: 286000 M⁻¹ s⁻¹
EC50 [6]: ~4 nM

B4: IgG1 m606 (antibody, V domains shown)
VH: QVQLVESGAEVKKPGASVKVSCKASGYTFTSYYMHWVRQAPGQGLEWMGIINPSGGSTSYAQKFQGRVTMTRDTSTSTVYMELSSLRSEDTAVYYCARDRSIAAMGWFDHWGQGTLVTVSS
VL: DIQMTQSPSSVSASVGDRVTITCRASQGISSWLVWYQQKPGKAPKLLIYAASRLQSGVPSRFSGSGSGTLFTLIINNLQPEDFATYYCQQSNSVPLTFGGGTKVEIKR
notes: Whole IgG made from the Fab in 293 Free Style cells; also called IgG m606; m606 IgG; not shown: rest of the IgG1 heavy chain constant region supplied by vector pDR12
EC50 (read off the curve) [1]: ~0.4 nM

B5: Fab m606 (Fab, V domains shown)
VH: B4 VH
VL: B4 VL
notes: also called clone M606
Kd [3]: 0.7 nM
koff [3]: 0.00025 s⁻¹
kon [3]: 350000 M⁻¹ s⁻¹
EC50 (read off the curve) [7]: ~6 nM
binding result [8]: no binding
binding result [4]: no binding
Ka [5]: 1.41e+09 M⁻¹
Kd [5]: 0.711 nM
kon [5]: 351000 M⁻¹ s⁻¹
EC50 [6]: ~4 nM

Other lines, results leading:

EC50 (read off the curve) [1]: ~0.5 nM
EC50 (read off the curve) [2]: ~0.4 nM
B1: IgG1 m610 (antibody, V domains shown)
VH: B2 VH
VL: not shown
notes: Whole IgG made from the Fab in 293 Free Style cells; also called IgG m610; IgG M610; not shown: rest of the IgG1 heavy chain constant region supplied by vector pDR12

binding result [4]: no binding
EC50 [6]: ~4 nM
B3: Fab m616 (Fab, V domains shown)
VH: SQVQVLVKPSQTLSLTCAISGDSVSSNSAAWNWIRQSPSRGLEWLGRTYYRSKWYNDYAVSVKSRITINPDTSKNQFSLQLNSVTPEDTAVYYCAREKGIGRGITGTTIPYNWFDPWGQGTLVTVSS
VL: SSYEITQPPSVSVTPGQTARITCSGDALPKHFAYWYQQKPGQAPVLIIYKDTERPSGIPERFSGSNSGNTATLTISRVEAGDEADYYCQVWDSSSGWVFGGGTKLTVQG
notes: Soluble Fab from E. coli periplasm; also called clone M616
